From publication PMC2853111 come the findings set out here.

Where two headings read alike, the source gives them in different places.

Series [1] concerns the target T1, estrogen receptor alpha (rERα, NR3A1) (UniProt P03372 1-595). As to the kind of experiment: EMSA. In general terms: In EMSA bound probe runs differently from free probe, usually more slowly.
Series [2] has as its target T1, estrogen receptor alpha (rERα, NR3A1). As to the kind of experiment: EMSA. The source holds these as a separate data set.

T1 sequence (P03372 whole entry): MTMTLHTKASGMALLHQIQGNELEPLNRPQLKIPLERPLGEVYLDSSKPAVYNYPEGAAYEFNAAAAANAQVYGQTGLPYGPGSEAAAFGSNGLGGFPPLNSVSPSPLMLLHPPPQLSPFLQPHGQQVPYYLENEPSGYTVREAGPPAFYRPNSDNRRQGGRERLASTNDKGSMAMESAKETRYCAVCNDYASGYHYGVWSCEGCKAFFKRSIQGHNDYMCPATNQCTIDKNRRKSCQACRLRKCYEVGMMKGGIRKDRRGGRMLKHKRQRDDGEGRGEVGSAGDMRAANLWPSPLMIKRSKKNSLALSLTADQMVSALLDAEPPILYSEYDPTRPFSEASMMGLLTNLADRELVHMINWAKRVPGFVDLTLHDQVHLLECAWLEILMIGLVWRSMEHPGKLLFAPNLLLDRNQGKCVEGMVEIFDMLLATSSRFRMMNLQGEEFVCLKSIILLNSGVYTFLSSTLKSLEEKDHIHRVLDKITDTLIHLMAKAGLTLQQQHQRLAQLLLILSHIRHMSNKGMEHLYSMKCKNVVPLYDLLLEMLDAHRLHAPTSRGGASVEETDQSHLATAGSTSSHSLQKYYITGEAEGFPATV

B1: B68 ERE probe (3' ERE, MIRb) (dsDNA)
DNA 1: TTTCTGGGTCACACCGACCTGAGCT
DNA 2: AGCTCAGGTCGGTGTGACCCAGAAA
Consider B1, for which the binding result in series [1] is reported as “binds”.

B2: D66 ERE probe (5' ERE, MIRb) (dsDNA)
DNA 1: CACCCAGGTCAGTCTGACATCTAAG
DNA 2: CTTAGATGTCAGACTGACCTGGGTG
On to B2, for which the binding result in series [1] is listed as “binds”.

B3: consensus ERE probe (ERE-EMSA) (dsDNA)
DNA 1: GGATCTAGGTCACTGTGACCCCGGATC
DNA 2: GATCCGGGGTCACAGTGACCTAGATCC
Turning to B3, the binding result in series [2] was “binds”.
